Assay results: paper PMC7268548, “A missense variant in specificity protein 6 (SP6) is associated with amelogenesis imperfecta”

How the values were obtained:
SP6 wild type = biological target: T1, SP6 wild type (Homo sapiens, UniProt Q3SY56 1-376); test: SPR; up to 400 nM; data not shown; Biacore 3000 SPR, 10 mM HEPES pH 7.5, 200 mM NaCl, 0.01% surfactant P-20, 25 C, 40 uL/min, protein 6.25-400 nM, DNA on SA chip; settings: protein: recombinant; tags: N-terminal His-GST; label: 5'-biotin on forward strand; blunt
T1 sequence: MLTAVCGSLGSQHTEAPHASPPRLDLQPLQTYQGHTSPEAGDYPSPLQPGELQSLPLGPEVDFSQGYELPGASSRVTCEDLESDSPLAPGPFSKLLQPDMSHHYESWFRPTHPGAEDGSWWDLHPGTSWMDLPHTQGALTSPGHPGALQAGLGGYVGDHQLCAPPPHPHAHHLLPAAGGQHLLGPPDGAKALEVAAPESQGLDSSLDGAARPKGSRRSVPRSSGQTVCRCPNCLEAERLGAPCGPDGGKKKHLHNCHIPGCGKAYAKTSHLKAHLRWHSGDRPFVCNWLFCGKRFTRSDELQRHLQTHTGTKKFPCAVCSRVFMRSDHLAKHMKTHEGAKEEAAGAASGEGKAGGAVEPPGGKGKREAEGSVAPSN

SP6 p.(Ala273Lys) = biological target: T2, SP6 p.(Ala273Lys) (Homo sapiens, UniProt Q3SY56 1-376, A273K); test: as above; settings: protein: recombinant; tags: N-terminal His-GST; label: 5'-biotin on forward strand; blunt
T2 sequence: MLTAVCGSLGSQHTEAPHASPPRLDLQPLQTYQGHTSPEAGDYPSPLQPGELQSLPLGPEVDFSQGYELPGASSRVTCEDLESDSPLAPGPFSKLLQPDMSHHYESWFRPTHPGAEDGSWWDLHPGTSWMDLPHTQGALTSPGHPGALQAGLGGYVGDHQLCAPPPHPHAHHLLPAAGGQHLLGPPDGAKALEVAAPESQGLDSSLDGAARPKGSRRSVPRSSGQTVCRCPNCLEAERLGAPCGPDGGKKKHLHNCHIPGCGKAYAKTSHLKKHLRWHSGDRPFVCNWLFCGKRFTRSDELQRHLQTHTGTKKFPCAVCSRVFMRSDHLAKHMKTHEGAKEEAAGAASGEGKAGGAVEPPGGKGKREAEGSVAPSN

B1: NKX2-1 promoter probe (SP3 site control) (dsDNA)
DNA 1: GGGATCCGGGACAGCCTCCGGGAGGCAGTCGATCCCCTAC
DNA 2: GTAGGGGATCGACTGCCTCCCGGAGGCTGTCCCGGATCCC
Q: What does the source list for B1?
A: binding result (SP6 wild type): no binding; binding result (SP6 p.(Ala273Lys)): no binding
